Results from paper PMC7472415 (Viruses, 2020).

Target: B/NP_TAIL mut1-YFP, B/NP_TAIL-YFP with point mutations in the positive charge patch of the NLS (influenza B virus B/Memphis/13/03)
Assay: SPR

human importin-α3 without its importin-β binding (IBB) domain (residues 64 to 521), sequence (O00629 64-521): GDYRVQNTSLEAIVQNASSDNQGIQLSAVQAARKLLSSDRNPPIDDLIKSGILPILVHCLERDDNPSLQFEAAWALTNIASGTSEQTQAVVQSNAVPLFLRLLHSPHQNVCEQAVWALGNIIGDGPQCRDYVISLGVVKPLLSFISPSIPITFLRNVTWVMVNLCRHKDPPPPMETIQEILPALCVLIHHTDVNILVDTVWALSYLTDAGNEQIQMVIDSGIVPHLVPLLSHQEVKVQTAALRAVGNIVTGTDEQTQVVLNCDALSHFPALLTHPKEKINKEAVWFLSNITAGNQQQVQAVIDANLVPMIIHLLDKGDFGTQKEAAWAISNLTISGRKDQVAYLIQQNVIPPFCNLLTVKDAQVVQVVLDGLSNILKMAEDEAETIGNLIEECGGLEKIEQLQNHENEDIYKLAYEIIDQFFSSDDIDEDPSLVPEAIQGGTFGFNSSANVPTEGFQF
human importin-α7 without its importin-β binding (IBB) domain (residues 58 to 536), sequence (O60684 58-536): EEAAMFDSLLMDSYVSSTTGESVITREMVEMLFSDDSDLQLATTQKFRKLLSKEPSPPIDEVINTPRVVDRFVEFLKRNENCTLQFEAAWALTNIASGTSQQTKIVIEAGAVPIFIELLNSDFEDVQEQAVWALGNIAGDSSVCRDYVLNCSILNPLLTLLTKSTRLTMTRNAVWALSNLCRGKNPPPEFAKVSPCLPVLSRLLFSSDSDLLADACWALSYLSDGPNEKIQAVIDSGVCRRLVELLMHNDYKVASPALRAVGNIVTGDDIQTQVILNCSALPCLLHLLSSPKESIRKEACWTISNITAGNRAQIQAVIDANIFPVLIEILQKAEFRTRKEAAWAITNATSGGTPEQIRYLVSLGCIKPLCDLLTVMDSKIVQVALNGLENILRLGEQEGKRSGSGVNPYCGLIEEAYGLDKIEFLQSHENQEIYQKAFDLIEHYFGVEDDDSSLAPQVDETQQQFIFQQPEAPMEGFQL
human importin-α5 without its importin-β binding (IBB) domain (residues 66 to 538), sequence (P52294 66-538): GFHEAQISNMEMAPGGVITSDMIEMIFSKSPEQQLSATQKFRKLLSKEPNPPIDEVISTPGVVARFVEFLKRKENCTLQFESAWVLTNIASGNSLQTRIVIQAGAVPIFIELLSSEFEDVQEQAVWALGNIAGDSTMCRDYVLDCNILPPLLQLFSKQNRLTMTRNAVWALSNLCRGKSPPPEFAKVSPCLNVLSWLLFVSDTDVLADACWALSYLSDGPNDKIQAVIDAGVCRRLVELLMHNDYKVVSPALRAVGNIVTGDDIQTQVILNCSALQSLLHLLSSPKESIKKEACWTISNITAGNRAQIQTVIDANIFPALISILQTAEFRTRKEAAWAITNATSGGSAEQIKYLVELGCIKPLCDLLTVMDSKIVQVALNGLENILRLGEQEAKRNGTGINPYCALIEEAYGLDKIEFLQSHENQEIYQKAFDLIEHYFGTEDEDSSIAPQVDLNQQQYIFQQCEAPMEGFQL

Row | Substance | Kd [µM]
1 | human importin-α3 without its importin-β binding (IBB) domain (residues 64 to 521) (from UniProt O00629 64-521) (domain or fragment) | > 5
2 | human importin-α5 without its importin-β binding (IBB) domain (residues 66 to 538) (from UniProt P52294 66-538) (domain or fragment) | > 5
3 | human importin-α7 without its importin-β binding (IBB) domain (residues 58 to 536) (from UniProt O60684 58-536) (domain or fragment) | > 5
